Here are results for 64 variants from the RNAGym collection of RNA variant scans (doi:10.7554/elife.80360).

B1: HDV Ribozyme (parent)
chain: GGCCGGCAUGGUCCCAGCCUCCUCGCUGGCGCCGGCUGGGCAACAUUCCGAGGGGACCGUCCCCUCGGUAAUGGCGAAUGGGACCCA

The variants in this data set derive from B1. Briefly: self-cleavage, relative activity (ratio to wild type); higher = more cleavage; co-transcriptional.
In the case of GGCCGGCAUGGUCCCAGCCUCCUCGCUGGCCCCGGCUGGGCAAGAUUCCGAGGGGACCGUCCCCUCGGUAAUGGCGAAUGGGACCCA, the self-cleavage amounted to 0.135.
On to GGCCGGCAUGGUCCCAGCCUCCUCGCUGGCGCCGGCUGGGCAGGAUUCCGAGGGGACCGUCCCCUCGGUAAUGGCGAAUGGGACCCA, for which the self-cleavage worked out at 0.798.
For GGCCGGCAUGGUCCCAGCCUCCUCGCUGGCGCCGGCUGGGCAACAUUCCGAUGGGAACGUCCCCUCGGUAAUGGCGAAUGGGACCCA, the self-cleavage amounted to 0.903.
With GGCCUGCAUGGUCCCAGCCUCCUCGCUGGCGCCGGCUGGGCAACAUUCCGAGGGGACCGUCCCCUCGGUAAUGGCGAAUGGGGCCCA, the self-cleavage was found to be 0.0573.
In the case of GGCCGGCAUGGUCCCAGCCUCCUCGAUGGCGCCGGCUGGGCAACAUUCCGAGGGGACCGUCCCCUCGGUAAUGGCGACUGGGACCCA, the self-cleavage amounted to 0.284.
Regarding GGCCGGCAUGGUCCCAGCCUCCUCGCAGGCGCCGGCUGGGCAACAUUCCGAUGGGACCGUCCCCUCGGUAAUGGCGAAUGGGACCCA, the self-cleavage amounted to 0.846.
On to GGCCGGCAUGGUCCCAGCCUCCUCGCUGGCGCCGGGUGGGCAACAUUCCGAGGGGAUCGUCCCCUCGGUAAUGGCGAAUGGGACCCA, for which the self-cleavage is 0.128.
The same measure for GGCCGGCAUGGUCCCUGCCUCCUCGCUGGCGCCGGCUGGGCAACAUUCCGAGGGGAUCGUCCCCUCGGUAAUGGCGAAUGGGACCCA: 0.831.
The same measure for GGCCGGCAUGGUCCCAGCCUCCUCGCUGGCGCCGGCUGGGCAACAUUCCGAGGGGACGGUCCCCUCGGUAAUGGCGAAUGGGAACCA: 0.817.
As for GGCCGGCCUGGUCCCAGCCUCCUCGCUGGCGCCGGCUGGGCAACAUUCCGAGGGGAGCGUCCCCUCGGUAAUGGCGAAUGGGACCCA, the self-cleavage came to 0.87.
Consider GGCCGGCAUGGUCCCAGCCUCCUCCCUGGCGCCGGUUGGGCAACAUUCCGAGGGGACCGUCCCCUCGGUAAUGGCGAAUGGGACCCA, for which the self-cleavage is 0.0978.
Regarding GGCCGGCAUGGUCCCAGCCUCCUCACUGGCGCCCGCUGGGCAACAUUCCGAGGGGACCGUCCCCUCGGUAAUGGCGAAUGGGACCCA, the self-cleavage came out at 0.229.
The same measure for GGCCGGCAUGGUCCCAGCCUCCUCGCUGGCGCCGGCUGGCCAACAUUCCGAGGGGACCGUCCCCUCGGUAAUGGCGAAUGGGACCAA: 0.363.
The same measure for GGCAGGCAUGGUCCCAGCCUCCUCGCUGGCGCCGGCUGGGCAACAUUCCGAGGGGACAGUCCCCUCGGUAAUGGCGAAUGGGACCCA: 0.348.
In the case of GGCCGGCAUGGUCCCAGCCUCCUCGCUGGCGCCGGAUGGGCAACAUUCCGAGGGGACCGUCCCCUCGGUAAUGGCGAAUCGGACCCA, the self-cleavage was found to be 0.178.
Take GGCCGGCAUGGUCCCAGCCUUCUCGCUGGCGCCGGCUGGGCAACAUUCCGAGGGGAUCGUCCCCUCGGUAAUGGCGAAUGGGACCCA: the self-cleavage worked out at 0.18.
On to UGCCGGCAUGGUCCCAGCCUCCUCGGUGGCGCCGGCUGGGCAACAUUCCGAGGGGACCGUCCCCUCGGUAAUGGCGAAUGGGACCCA, for which the self-cleavage came to 0.469.
Turning to GGCUGGCAUGGUCCCAGCCUCCUCGCUGGCGCCGGCUGGGCAACAUUCCGAGGGGACCGUCCCCUCGGUAAUGGCGAAUGGGACCUA, the self-cleavage was 0.889.
For the variant GGCCGGCAUGGUCCCACCCUCCUCGCUGGCGCCGGCUGGGCAACAUUCCGAGGGGACCGUCCCCUCGGUAAUGGCGAAUGGGAUCCA, the self-cleavage amounted to 0.326.
In the case of GGCCGGCAUGGUCCCAGCCUCAUCGCUGGCGCCGGCUGGGCAACAUUCCGAGGGGACCGUCCCCUCGGUAUUGGCGAAUGGGACCCA, the self-cleavage came to 0.326.
The same measure for GGCCGGCAUGGUCCCAGCCUACUCGCGGGCGCCGGCUGGGCAACAUUCCGAGGGGACCGUCCCCUCGGUAAUGGCGAAUGGGACCCA: 0.0639; for GGCCGGCAUGGUCCCAGCCUCCUCGCUGGCGCCGGCUGGGCAACAUUCCUAGGGUACCGUCCCCUCGGUAAUGGCGAAUGGGACCCA: 0.906; for GGCCGGCACGGUCCCAGCCUCCUCGCUGGCGCCGGCAGGGCAACAUUCCGAGGGGACCGUCCCCUCGGUAAUGGCGAAUGGGACCCA: 0.289.
Under GGCCGGCAUGGUCCCAGCCUCCUCGCUGGCGCCGGCUGGGCAACAUUCCGAGGGGACCGACCCCUCGGUAAUGGCGGAUGGGACCCA stands 1.14.
Take GGCCGGCAUGGUCCCAGCCUCCUCGCUGGCGCCGGCUAGGCAACAUUCCGAGGGGACCGUCCCCUCGGUAAUGGCGAAUCGGACCCA: the self-cleavage is 0.117.
Take GGCCGGCAUGGUCCCAGCCUCAUCGCUGGCGCCGGCUGGGCAACAUUCCGAGGGGACCGUCCCCUCGGUAAUGGCGAAUAGGACCCA: the self-cleavage came to 0.0479.
Take GGCCGGCAUGGUCCCAGCCUCCUCGCUGGCGCCGGCUGGGCAACAUUCCGAGGGGACCGUCCCCUCGGUAAUGGCGCCUGGGACCCA: the self-cleavage turned out to be 0.208.
Take GGCCGGCAUGGUCCCAGCCUCCUCGCUGGCGCCGGCUGGGCAACAUUCCGAGGUGACCGUCCCCUCAGUAAUGGCGAAUGGGACCCA: the self-cleavage is 1.01.
Consider GGCCGGCAUGGCCCCAGCCUCCUCGCUGGCGCCGGCUGGGCAACAUUCCGAGGGGACCGUCCCCUCGGUAAUGGCGAAUGGGACCUA, for which the self-cleavage worked out at 0.578.
Consider GGCCGGCAUGGUCCCAGCCUCCUCGCUGGCGCCGGCUUGGCAACAUCCCGAGGGGACCGUCCCCUCGGUAAUGGCGAAUGGGACCCA, for which the self-cleavage worked out at 0.133.
With GGCCGGCAUGGUCCCAGCCUCCUCGCUGGCGCCGGCUGGGCAACUUUCCGAGGGGACCGUCGCCUCGGUAAUGGCGAAUGGGACCCA, the self-cleavage worked out at 0.798.
GGCCGGCAUGGUCCCAGCCUCCUCGAUGGCGCCGGUUGGGCAACAUUCCGAGGGGACCGUCCCCUCGGUAAUGGCGAAUGGGACCCA: the self-cleavage amounted to 0.629.
For GGCCGGCAUGGUCCCAGCCUCUUCGCUGGCGCCGGCUGGGCAACAUUCCGAGGGGACCGCCCCCUCGGUAAUGGCGAAUGGGACCCA, the self-cleavage was determined as 0.767.
Turning to GGCCGGCAUGGUCCCAGCCUCCUCGCUGGCGACGGCUGGGCAACAUUCCGAGGGGACCGUCCCCUCGGUAAUGGCGAAUGGGACCCG, the self-cleavage is 0.165.
Regarding GGCCUACAUGGUCCCAGCCUCCUCGCUGGCGCCGGCUGGGCAACAUUCCGAGGGGACCGUCCCCUCGGUAAUGGCGAAUGGGACCCA, the self-cleavage is 0.208.
Regarding GGCCGGCAAGGUCCCAGCCUCCUCGCUGGCGCCGGCUGGGAAACAUUCCGAGGGGACCGUCCCCUCGGUAAUGGCGAAUGGGACCCA, the self-cleavage came to 0.831.
GGCCGGCUUGGUGCCAGCCUCCUCGCUGGCGCCGGCUGGGCAACAUUCCGAGGGGACCGUCCCCUCGGUAAUGGCGAAUGGGACCCA: the self-cleavage is 0.
Take GGCCGGCAUGGUCCCAGCCUCCUCGCUGGCGCCGGCUGCGCAACAUUACGAGGGGACCGUCCCCUCGGUAAUGGCGAAUGGGACCCA: the self-cleavage stood at 0.125.
Under GCCCGGCAAGGUCCCAGCCUCCUCGCUGGCGCCGGCUGGGCAACAUUCCGAGGGGACCGUCCCCUCGGUAAUGGCGAAUGGGACCCA stands 0.0755; under GGCCGGCAUGGUCCCAGCCUCCUCGCUGGUGCCGGCUGGGCAUCAUUCCGAGGGGACCGUCCCCUCGGUAAUGGCGAAUGGGACCCA, 0.0652.
With GGCCGGCAUGGUCCCAGCCUCCUCGCUGGCGACGGCUGGGCAACAUUGCGAGGGGACCGUCCCCUCGGUAAUGGCGAAUGGGACCCA, the self-cleavage is 0.0462.
Regarding GGCCGGCAUGGUCCCAGCUACCUCGCUGGCGCCGGCUGGGCAACAUUCCGAGGGGACCGUCCCCUCGGUAAUGGCGAAUGGGACCCA, the self-cleavage worked out at 0.149.
As to GGCCGGCAUGGUUCCAGCCUCCUCGCUGGCGCCGGCUGGCCAACAUUCCGAGGGGACCGUCCCCUCGGUAAUGGCGAAUGGGACCCA, the self-cleavage is 0.0739.
Regarding GGCCGGCAUGGUCCCAGCCUCCUCGCUGGCGCCGGUUGGGCAACAUUCCGAGGGGACCGUCCCCUCGGUAAUGACGAAUGGGACCCA, the self-cleavage came out at 0.205.
Under GGCCGGCAUGGUCCCAGCCACCUCGCUGGCGCCGGCUGGGCAACAUUCCGAGGAGACCGUCCCCUCGGUAAUGGCGAAUGGGACCCA stands 0.116.
Under GGCCGGCAUGGUCCCAGCCUCCUCGCUGGCGCCGGCUGGGCAACAUCCCGAGGGGACCGUCCCCUCGGUAAUGGCCAAUGGGACCCA stands 0.931.
As to GGCCGGCAUGGUGCCAGCCUCCUCGCUGGCGCCGGAUGGGCAACAUUCCGAGGGGACCGUCCCCUCGGUAAUGGCGAAUGGGACCCA, the self-cleavage came to 0.0449.
For the variant GGCCGGCAUGGUCCCAGCCUCCUCGCUGGCGCCGGCUGGGAAACAUUCCGAGGGGACCGUCCCCUCGGUAAUGGCGAUUGGGACCCA, the self-cleavage turned out to be 0.354.
The same measure for GGCCGGCGGGGUCCCAGCCUCCUCGCUGGCGCCGGCUGGGCAACAUUCCGAGGGGACCGUCCCCUCGGUAAUGGCGAAUGGGACCCA: 0.831; for GGCCGGUAUGGUCCCAGCCUCCUCGCUGGCGCCGGCUGGGCAACAUUCCGAGGGAACCGUCCCCUCGGUAAUGGCGAAUGGGACCCA: 0.724.
Take GGCCGGCAUGGUCCCAGCCUCCUCGCUGGCGCCGGCUGGGCAACAUUCCGAGGGGACCGUCCCCUCGGUAACGGCUAAUGGGACCCA: the self-cleavage came to 1.01.
Under GGCCGGCAUGGUCCCAGCCUCCUCGCUGGCGCCGGCGGGGCAACAUUCCGAGGGGACCGUCCCCUCGGUAAUGGCGAAUGGAACCCA stands 0.158.
As for GGCCGGCAUGGUCCCAGCCUCCUCGCUGGCGCCGGUUGGGCAACAUUCCGAGGGGACCGUCCCCUCGGUAAUUGCGAAUGGGACCCA, the self-cleavage turned out to be 0.0692.
As to GGCCGGCAUGGUCCCAACCUCCUCGCUGGCGCCGGCUGGGCAACAAUCCGAGGGGACCGUCCCCUCGGUAAUGGCGAAUGGGACCCA, the self-cleavage is 0.308.
In the case of GGCCGGCAUGGUCCCACCCUCCUCGCUGGCGCCGGCUGGGCAACAUUCCGAGGGGACAGUCCCCUCGGUAAUGGCGAAUGGGACCCA, the self-cleavage came to 0.388.
GGCCGGCAUGGUCCCAGCCUCCUUGCUGGCGCCGGCUGGGCAACGUUCCGAGGGGACCGUCCCCUCGGUAAUGGCGAAUGGGACCCA: the self-cleavage turned out to be 0.373.
For the variant GGCCGGCAUGGUCCCAGCCUCCUCGCUGGCGCCGGCUGGGCCACAUUCCGAGGGGACCGUCCCCUCGGUAAUGGCGAAUGGGACCGA, the self-cleavage was determined as 0.353.
Consider GGCCGGCAUGGUCCCAGCCUCCUCGCUGGCGCCGGCUGGGCAACAUUCCGAGGGGACCGUCUCCUCGGUAAUGGCGAAUGGGUCCCA, for which the self-cleavage worked out at 0.318.
For the variant GGCCGGCAUGGCCCCAGCCUCCUCGCUGGCGCCCGCUGGGCAACAUUCCGAGGGGACCGUCCCCUCGGUAAUGGCGAAUGGGACCCA, the self-cleavage is 0.115.
Consider GGCCGGCAUGGUCCCAGCCUCCUCGCUGGCACCGGCUGGGCAACAUUCCGAGGGGACCGUCCCCUCGGUAAUGGCGAAUGGGACCAA, for which the self-cleavage was 0.669.
On to GGCCGGCAUGGUCCCAGCCUCCUCGCUGGCGCCGGAUGGGCAACAUUCCGAGGGGACCGUCCCCUCGGUAAUGGCGAAUGUGACCCA, for which the self-cleavage is 0.0523.
Take GGCCGGCAUGGUCCCAGCCUCCUCGCUGGCGCCGGCUUGGCAAGAUUCCGAGGGGACCGUCCCCUCGGUAAUGGCGAAUGGGACCCA: the self-cleavage amounted to 0.0652.
Regarding GGCGGGCAUGGUCCCAGCCUCCUCGCUGGCGCCGGCUGGGCAACAUUCCGAGAGGACCGUCCCCUCGGUAAUGGCGAAUGGGACCCA, the self-cleavage is 0.277.
Turning to GGCCGGCAUGGUCCCAGCCUCCUCGCUGGCGCCGGCUGGGCAACAUUCGGAGGGGACCGCCCCCUCGGUAAUGGCGAAUGGGACCCA, the self-cleavage came out at 0.831.
